Target: gH glycoprotein of CMV (82,000 dalton component) (human cytomegalovirus (CMV), strain not stated)

B1: human monoclonal antibody SDZ MSL 109 (antibody, V domains shown)
VH: EEQVLESGGGLVKPGGSLRLSCAASGFTFSPYSVFWVRQAPGKGLEWVSSINSDSTYKYYADSVKGRFTISRDNAENSIFLQMNSLRAEDTAVYYCARDRSYYAFSSGSLSDYYYGLDVWGQG
VL: DIVMTQSPLSLSVTPGEPASISCRSSQSLLHTNGYNYLDWYVQKPGQSPQLLIYLASNRASGVPDRFSGSGSGTDFTLKISRVETEDVGVYYCMQALQIPRTFGQGTKVEIKR
  neutralizing concentration (micro-neutralization assay): 100 ng/mL

Source: patent US5750106
